First the molecules themselves.
B1: Adagio protein 1 (Arabidopsis thaliana (Mouse-ear cress)), Q94BT6 (parent)
chain: MEWDSGSDLSADDASSLADDEEGGLFPGGGPIPYPVGNLLHTAPCGFVVTDAVEPDQPIIYVNTVFEMVTGYRAEEVLGGNCRFLQCRGPFAKRRHPLVDSMVVSEIRKCIDEGIEFQGELLNFRKDGSPLMNRLRLTPIYGDDDTITHIIGIQFFIETDIDLGPVLGSSTKEKSIDGIYSALAAGERNVSRGMCGLFQLSDEVVSMKILSRLTPRDVASVSSVCRRLYVLTKNEDLWRRVCQNAWGSETTRVLETVPGAKRLGWGRLARELTTLEAAAWRKLSVGGSVEPSRCNFSACAVGNRVVLFGGEGVNMQPMNDTFVLDLNSDYPEWQHVKVSSPPPGRWGHTLTCVNGSNLVVFGGCGQQGLLNDVFVLNLDAKPPTWREISGLAPPLPRSWHSSCTLDGTKLIVSGGCADSGVLLSDTFLLDLSIEKPVWREIPAAWTPPSRLGHTLSVYGGRKILMFGGLAKSGPLKFRSSDVFTMDLSEEEPCWRCVTGSGMPGAGNPGGVAPPPRLDHVAVNLPGGRILIFGGSVAGLHSASQLYLLDPTEDKPTWRILNIPGRPPRFAWGHGTCVVGGTRAIVLGGQTGEEWMLSELHELSLASYLT

Variants of B1 are the subject of this assay. The settings on record: with skp1a_arath SKP1A.
Consider L213A, for which the “effect of a mutation on the interaction” value is “decreasing interaction”.
Under L200A stands “decreasing interaction”.

Source of the values: IntAct's records for PubMed 15447654.
